To fix the notation:
T1: TAP-tagged Kap120 (S. cerevisiae, UniProt Q02932 1-1032)
T1 sequence (looked up): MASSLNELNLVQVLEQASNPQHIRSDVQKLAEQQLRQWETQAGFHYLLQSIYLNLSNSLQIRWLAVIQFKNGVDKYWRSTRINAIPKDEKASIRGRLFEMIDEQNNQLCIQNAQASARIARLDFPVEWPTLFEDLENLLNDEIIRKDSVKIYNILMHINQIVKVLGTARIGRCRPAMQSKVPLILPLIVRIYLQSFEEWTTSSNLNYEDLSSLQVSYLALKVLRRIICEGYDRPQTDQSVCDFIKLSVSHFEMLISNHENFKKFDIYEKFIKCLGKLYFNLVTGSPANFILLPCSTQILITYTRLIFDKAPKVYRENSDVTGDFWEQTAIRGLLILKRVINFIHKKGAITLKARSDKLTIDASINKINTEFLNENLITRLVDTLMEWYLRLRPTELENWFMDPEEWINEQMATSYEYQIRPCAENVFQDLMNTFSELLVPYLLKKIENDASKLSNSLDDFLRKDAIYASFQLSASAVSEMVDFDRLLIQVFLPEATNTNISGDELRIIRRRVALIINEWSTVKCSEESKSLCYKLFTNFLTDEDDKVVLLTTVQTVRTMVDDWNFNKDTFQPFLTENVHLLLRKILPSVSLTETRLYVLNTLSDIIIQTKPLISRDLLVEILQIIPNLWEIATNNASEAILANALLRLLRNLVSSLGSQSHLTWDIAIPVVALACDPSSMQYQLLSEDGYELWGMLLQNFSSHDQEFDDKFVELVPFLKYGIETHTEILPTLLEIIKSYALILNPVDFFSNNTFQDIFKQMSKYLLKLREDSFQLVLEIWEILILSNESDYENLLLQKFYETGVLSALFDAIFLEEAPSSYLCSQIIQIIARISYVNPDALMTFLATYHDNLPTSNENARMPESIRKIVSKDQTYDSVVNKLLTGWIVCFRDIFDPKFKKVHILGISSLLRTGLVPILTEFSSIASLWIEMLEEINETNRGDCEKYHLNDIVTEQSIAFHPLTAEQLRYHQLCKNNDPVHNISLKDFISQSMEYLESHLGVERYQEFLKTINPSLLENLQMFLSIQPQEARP

B1: Pat1 (natural protein, S. cerevisiae (endogenous in yeast), UniProt P25644 1-796, looked up)
chain: MSFFGLENSGNARDGPLDFEESYKGYGEHELEENDYLNDETFGDNVQVGTDFDFGNPHSSGSSGNAIGGNGVGATARSYVAATAEGISGPRTDGTAAAGPLDLKPMESLWSTAPPPAMAPSPQSTMAPAPAPQQMAPLQPILSMQDLERQQRQMQQQFMNFHAMGHPQGLPQGPPQQQFPMQPASGQPGPSQFAPPPPPPGVNVNMNQMPMGPVQVPVQASPSPIGMSNTPSPGPVVGATKMPLQSGRRSKRDLSPEEQRRLQIRHAKVEKILKYSGLMTPRDKDFITRYQLSQIVTEDPYNEDFYFQVYKIIQRGGITSESNKGLIARAYLEHSGHRLGGRYKRTDIALQRMQSQVEKAVTVAKERPSKLKDQQAAAGNSSQDNKQANTVLGKISSTLNSKNPRRQLQIPRQQPSDPDALKDVTDSLTNVDLASSGSSSTGSSAAAVASKQRRRSSYAFNNGNGATNLNKSGGKKFILELIETVYEEILDLEANLRNGQQTDSTAMWEALHIDDSSYDVNPFISMLSFDKGIKIMPRIFNFLDKQQKLKILQKIFNELSHLQIIILSSYKTTPKPTLTQLKKVDLFQMIILKIIVSFLSNNSNFIEIMGLLLQLIRNNNVSFLTTSKIGLNLITILISRAALIKQDSSRSNILSSPEISTWNEIYDKLFTSLESKIQLIFPPREYNDHIMRLQNDKFMDEAYIWQFLASLALSGKLNHQRIIIDEVRDEIFATINEAETLQKKEKELSVLPQRSQELDTELKSIIYNKEKLYQDLNLFLNVMGLVYRDGEISELK
B2: Dhh1 (natural protein, S. cerevisiae (endogenous in yeast), UniProt P39517 1-506, looked up)
chain: MGSINNNFNTNNNSNTDLDRDWKTALNIPKKDTRPQTDDVLNTKGNTFEDFYLKRELLMGIFEAGFEKPSPIQEEAIPVAITGRDILARAKNGTGKTAAFVIPTLEKVKPKLNKIQALIMVPTRELALQTSQVVRTLGKHCGISCMVTTGGTNLRDDILRLNETVHILVGTPGRVLDLASRKVADLSDCSLFIMDEADKMLSRDFKTIIEQILSFLPPTHQSLLFSATFPLTVKEFMVKHLHKPYEINLMEELTLKGITQYYAFVEERQKLHCLNTLFSKLQINQAIIFCNSTNRVELLAKKITDLGYSCYYSHARMKQQERNKVFHEFRQGKVRTLVCSDLLTRGIDIQAVNVVINFDFPKTAETYLHRIGRSGRFGHLGLAINLINWNDRFNLYKIEQELGTEIAAIPATIDKSLYVAENDETVPVPFPIEQQSYHQQAIPQQQLPSQQQFAIPPQQHHPQFMVPPSHQQQQAYPPPQMPSQQGYPPQQEHFMAMPPGQSQPQY
B3: Tail-GFP (Xrn1 Tail, amino acids 351-521, fused to GFP) (domain or fragment, S. cerevisiae, UniProt P22147 351-521, looked up)
chain: EKDDIDVEWFNKQLENISLEGERKRQRVGKKLLVKQQKKLIGSIKPWLMEQLQEKLSPDLPDEEIPTLELPKDLDMKDHLEFLKEFAFDLGLFITHSKSKGSYSLKMDLDSINPDETEEEFQNRVNSIRKTIKKYQNAIIVEDKEELETEKTIYNERFERWKHEYYHDKLK
B4: recombinant Kap120-6xHis (natural protein, S. cerevisiae, UniProt Q02932 1-1032, looked up)
chain: T1 sequence (looked up)

Test [1] addresses B4. Nature of the test: pull-down.
In test [2] the target is T1, TAP-tagged Kap120. Nature of the test: co-IP.
The target of test [3] is FLAG-tagged Xrn1 (wild type) (S. cerevisiae, UniProt P22147 1-1528). Briefly: pull-down.
Sequence of FLAG-tagged Xrn1 (wild type) (P22147 whole entry): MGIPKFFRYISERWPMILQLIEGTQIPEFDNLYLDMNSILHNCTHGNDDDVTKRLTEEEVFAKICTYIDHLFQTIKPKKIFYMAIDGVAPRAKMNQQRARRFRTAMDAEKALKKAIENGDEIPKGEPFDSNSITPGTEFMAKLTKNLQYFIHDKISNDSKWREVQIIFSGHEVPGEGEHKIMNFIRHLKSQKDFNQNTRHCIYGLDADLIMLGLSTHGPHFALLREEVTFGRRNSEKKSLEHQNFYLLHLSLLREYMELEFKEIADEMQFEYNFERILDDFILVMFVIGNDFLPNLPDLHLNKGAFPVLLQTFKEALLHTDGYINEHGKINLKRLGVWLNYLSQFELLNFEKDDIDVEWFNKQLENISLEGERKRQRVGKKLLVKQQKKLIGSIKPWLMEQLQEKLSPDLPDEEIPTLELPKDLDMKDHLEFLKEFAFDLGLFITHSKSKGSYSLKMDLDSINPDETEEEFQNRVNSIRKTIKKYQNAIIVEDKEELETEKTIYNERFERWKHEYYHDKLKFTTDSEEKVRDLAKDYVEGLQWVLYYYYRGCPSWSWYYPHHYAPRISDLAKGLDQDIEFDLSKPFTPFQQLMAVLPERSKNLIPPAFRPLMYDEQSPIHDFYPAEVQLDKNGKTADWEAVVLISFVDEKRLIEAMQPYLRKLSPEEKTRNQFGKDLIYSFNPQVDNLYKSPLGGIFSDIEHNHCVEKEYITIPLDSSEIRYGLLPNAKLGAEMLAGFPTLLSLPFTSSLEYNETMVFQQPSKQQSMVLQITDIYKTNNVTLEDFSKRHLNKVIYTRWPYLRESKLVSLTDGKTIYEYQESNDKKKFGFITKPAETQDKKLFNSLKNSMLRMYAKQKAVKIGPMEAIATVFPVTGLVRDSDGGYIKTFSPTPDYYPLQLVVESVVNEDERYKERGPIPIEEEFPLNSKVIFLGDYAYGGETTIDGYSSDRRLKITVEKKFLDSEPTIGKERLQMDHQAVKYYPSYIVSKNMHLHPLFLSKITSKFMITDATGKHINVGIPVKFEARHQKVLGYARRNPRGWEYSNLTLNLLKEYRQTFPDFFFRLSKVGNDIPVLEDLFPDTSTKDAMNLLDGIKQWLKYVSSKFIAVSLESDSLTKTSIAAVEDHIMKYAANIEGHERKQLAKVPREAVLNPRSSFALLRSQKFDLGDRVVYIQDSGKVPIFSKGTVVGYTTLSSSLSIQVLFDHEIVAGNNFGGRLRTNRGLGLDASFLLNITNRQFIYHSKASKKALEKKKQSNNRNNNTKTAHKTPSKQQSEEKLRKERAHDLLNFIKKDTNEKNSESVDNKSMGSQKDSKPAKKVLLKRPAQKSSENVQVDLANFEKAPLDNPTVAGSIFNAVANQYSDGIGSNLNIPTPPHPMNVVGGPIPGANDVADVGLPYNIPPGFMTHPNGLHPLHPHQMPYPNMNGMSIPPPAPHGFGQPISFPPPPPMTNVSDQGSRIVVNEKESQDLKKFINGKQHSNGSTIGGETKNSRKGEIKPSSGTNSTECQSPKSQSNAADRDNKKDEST

With “FLAG-tagged Xrn1^ΔNLS1/2 (from UniProt P22147 1-1528) (enzyme)”, the fold weaker than Xrn1^WT-Kap120 in test [1] came to 4.5 fold.

Take B1: the “fold reduction of the co-IP in Xrn1^ΔNLS1/2 cells against WT cells” value in test [2] was about 5 fold.

For the molecule B2, the “fold reduction of the co-IP in Xrn1^ΔNLS1/2 cells against WT cells” value in test [2] is about 5 fold.

As for B3, the binding result in test [1] was “binds”.

Consider B4, for which, in test [3], the binding result was “binds”.

Values taken from doi:10.1101/2021.04.01.437949 (bioRxiv, 2021).
